Series [1] deals with HeLa Kyoto. Briefly: thermal stability score vs G1/S (z-score of summed log2 fold changes over temperatures); higher = more thermally stable than in G1/S.
In series [2] the test system is HeLa Kyoto. Briefly: melting temperature (median over replicates), in situ; higher = more thermally stable.
For series [3], the system named is HeLa Kyoto. Briefly: solubility in G1/S (NP-40 vs SDS abundance) (log2 ratio); higher = more soluble. Particulars: cell cycle stage: G1/S.
The subject of series [4] is HeLa Kyoto. Briefly: solubility change mitosis vs G1/S (difference of NP-40 vs SDS log2 ratios) (log2 ratio difference); higher = more soluble in mitosis.
The mark [5] stands for this setting: cell cycle stage: early G1 (4.5 h after nocodazole release).
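Throughout, for melting temperature (median over replicates), in situ: HeLa Kyoto cells synchronized by double thymidine or nocodazole block, proteins quantified by TMT10plex mass spectrometry, three independent biological replicates.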
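Throughout, for solubility change mitosis vs G1/S (difference of NP-40 vs SDS log2 ratios): synchronized HeLa Kyoto cells (double thymidine block for G1/S, nocodazole release for mitosis), protein amounts in NP-40 versus SDS lysates quantified by mass spectrometry, three biological replicates.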
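Throughout, for solubility in G1/S (NP-40 vs SDS abundance): HeLa Kyoto cells arrested at G1/S by double thymidine block, proteins quantified by TMT10plex mass spectrometry in mild NP-40 versus SDS extracts, three biological replicates.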
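Throughout, for thermal stability score vs G1/S (z-score of summed log2 fold changes over temperatures): synchronized HeLa Kyoto cells, proteins quantified by TMT10plex mass spectrometry, three biological replicates, mitosis taken 0.5 h after nocodazole release, G1/S directly after double thymidine block.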

Turning to “MLRWLIGGGREPQGLAEKSPLQTIGEEQTQNPYTELLVLKAHHDIVRFLVQLDDYRFASAGDDGIVVVWNAQTGEKLLELNGHTQKITAIITFPSLESCEEKNQLILTASADRTVIVWDGDTTRQVQRISCFQSTVKCLTVLQRLDVWLSGGNDLCVWNRKLDLLCKTSHLSDTGISALVEIPKNCVVAAVGKELIIFRLVAPTEGSLEWDILEVKRLLDHQDNILSLINVNDLSFVTGSHVGELIIWDALDWTMQAYERNFWDPSPQLDTQQEIKLCQKSNDISIHHFTCDEENVFAAVGRGLYVYSLQMKRVIACQKTAHDSNVLHVARLPNRQLISCSEDGSVRIWELREKQQLAAEPVPTGFFNMWGFGRVSKQASQPVKKQQENATSCSLELIGDLIGHSSSVEMFLYFEDHGLVTCSADHLIILWKNGERESGLRSLRLFQKLEENGDLYLAV [WDR41]”, the thermal stability score with HeLa Kyoto [1] (setting [5]) was -1.29; in the series with HeLa Kyoto [1] (cell cycle stage: mitosis) it was -1.46. The melting temperature in the series on HeLa Kyoto [2] (cell cycle stage: G1/S) amounted to 52.8 °C; with HeLa Kyoto [2] (cell cycle stage: mitosis) it was 53.4 °C. The “solubility in G1/S (log2)” value in the series with HeLa Kyoto [3] was 0.0666. In the series on HeLa Kyoto [4], the “solubility change mitosis (log2)” value was -0.21.
Regarding “MLSPQRVAAAASRGADDAMESSKPGPVQVVLVQKDQHSFELDEKALASILLQDHIRDLDVVVVSVAGAFRKGKSFILDFMLRYLYSQKESGHSNWLGDPEEPLTGFSWRGGSDPETTGIQIWSEVFTVEKPGGKKVAVVLMDTQGAFDSQSTVKDCATIFALSTMTSSVQIYNLSQNIQEDDLQQLQLFTEYGRLAMDEIFQKPFQTLMFLVRDWSFPYEYSYGLQGGMAFLDKRLQVKEHQHEEIQNVRNHIHSCFSDVTCFLLPHPGLQVATSPDFDGKLKDIAGEFKEQLQALIPYVLNPSKLMEKEINGSKVTCRGLLEYFKAYIKIYQGEDLPHPKSMLQATAEANNLAAAASAKDIYYNNMEEVCGGEKPYLSPDILEEKHCEFKQLALDHFKKTKKMGGKDFSFRYQQELEEEIKELYENFCKHNGSKNVFSTFRTPAVLFTGIVALYIASGLTGFIGLEVVAQLFNCMVGLLLIALLTWGYIRYSGQYRELGGAIDFGAAYVLEQASSHIGNSTQATVRDAVVGRPSMDKKAQ [ATL3]”, the thermal stability score was -0.0896 in the series with HeLa Kyoto [1] (setting [5]) and 0.487 in the series with HeLa Kyoto [1] (cell cycle stage: mitosis). Further, the melting temperature is 52.2 °C with HeLa Kyoto [2] (cell cycle stage: G1/S) and 51.7 °C with HeLa Kyoto [2] (cell cycle stage: mitosis). In the series with HeLa Kyoto [3], the “solubility in G1/S (log2)” value is -0.00471. In addition, the “solubility change mitosis (log2)” value in the series with HeLa Kyoto [4] is -0.139.
In the case of “MLSRSRCVSRAFSRSLSAFQKGNCPLGRRSLPGVSLCQGPGYPNSRKVVINNSVFSVRFFRTTAVCKDDLVTVKTPAFAESVTEGDVRWEKAVGDTVAEDEVVCEIETDKTSVQVPSPANGVIEALLVPDGGKVEGGTPLFTLRKTGAAPAKAKPAEAPAAAAPKAEPTAAAVPPPAAPIPTQMPPVPSPSQPPSGKPVSAVKPTVAPPLAEPGAGKGLRSEHREKMNRMRQRIAQRLKEAQNTCAMLTTFNEIDMSNIQEMRARHKEAFLKKHNLKLGFMSAFVKASAFALQEQPVVNAVIDDTTKEVVYRDYIDISVAVATPRGLVVPVIRNVEAMNFADIERTITELGEKARKNELAIEDMDGGTFTISNGGVFGSLFGTPIINPPQSAILGMHGIFDRPVAIGGKVEVRPMMYVALTYDHRLIDGREAVTFLRKIKAAVEDPRVLLLDL [DLST]”, the figures for the thermal stability score in the series with HeLa Kyoto [1] (setting [5]) and with HeLa Kyoto [1] (cell cycle stage: mitosis) were -2.5 and -3.04, respectively. Further, the figures for the melting temperature in the series on HeLa Kyoto [2] (cell cycle stage: G1/S) and in the series with HeLa Kyoto [2] (cell cycle stage: mitosis) were 61.7 °C and 65.9 °C, respectively. Further, the “solubility in G1/S (log2)” value with HeLa Kyoto [3] stood at 0.0922. Also, the “solubility change mitosis (log2)” value in the series on HeLa Kyoto [4] is -0.0493.
In the case of “MLSRVVLSAAATAAPSLKNAAFLGPGVLQATRTFHTGQPHLVPVPPLPEYGGKVRYGLIPEEFFQFLYPKTGVTGPYVLGTGLILYALSKEIYVISAETFTALSVLGVMVYGIKKYGPFVADFADKLNEQKLAQLEEAKQASIQHIQNAIDTEKSQQALVQKRHYLFDVQRNNIAMALEVTYRERLYRVYKEVKNRLDYHISVQNMMRRKEQEHMINWVEKHVVQSISTQQEKETIAKCIADLKLLAKKAQAQPVM [ATP5F1]”, the thermal stability score in the series on HeLa Kyoto [1] (setting [5]) is -0.0719; in the series on HeLa Kyoto [1] (cell cycle stage: mitosis) it was -1.2. Moreover, the melting temperature came out at 52.8 °C in the series on HeLa Kyoto [2] (cell cycle stage: G1/S) and 53.8 °C in the series with HeLa Kyoto [2] (cell cycle stage: mitosis). Moreover, in the series with HeLa Kyoto [3], the “solubility in G1/S (log2)” value was 0.102. Also, the “solubility change mitosis (log2)” value in the series on HeLa Kyoto [4] came out at 0.116.
On to “MLSSTAMYSAPGRDLGMEPHRAAGPLQLRFSPYVFNGGTILAIAGEDFAIVASDTRLSEGFSIHTRDSPKCYKLTDKTVIGCSGFHGDCLTLTKIIEARLKMYKHSNNKAMTTGAIAAMLSTILYSRRFFPYYVYNIIGGLDEEGKGAVYSFDPVGSYQRDSFKAGGSASAMLQPLLDNQVGFKNMQNVEHVPLSLDRAMRLVKDVFISAAERDVYTGDALRICIVTKEGIREETVSLRKD [PSMB1]”, for which the figures for the thermal stability score in the series on HeLa Kyoto [1] (setting [5]) and in the series on HeLa Kyoto [1] (cell cycle stage: mitosis) were -1.78 and -1.88, respectively. Besides, the melting temperature in the series on HeLa Kyoto [2] (cell cycle stage: G1/S) was 57 °C; with HeLa Kyoto [2] (cell cycle stage: mitosis), 60.1 °C. Besides, the “solubility in G1/S (log2)” value in the series with HeLa Kyoto [3] was -0.00543. In addition, the “solubility change mitosis (log2)” value in the series on HeLa Kyoto [4] was -0.098.
As for “MLVLRSALTRALASRTLAPQMCSSFATGPRQYDGIFYEFRSYYLKPSKMNEFLENFEKNAHLRTAHSELVGYWSVEFGGRMNTVFHIWKYDNFAHRTEVRKALAKDKEWQEQFLIPNLALIDKQESEITYLVPWCKLEKPPKEGVYELATFQMKPGGPALWGDAFKRAVHAHVNLGYTKLVGVFHTEYGALNRVHVLWWNESADSRAAGRHKSHEDPRVVAAVRESVNYLVSQQNMLLIPTSFSPLK [NIPSNAP3A]”, the thermal stability score was -1.76 in the series on HeLa Kyoto [1] (setting [5]) and -2.47 in the series with HeLa Kyoto [1] (cell cycle stage: mitosis). The results for the melting temperature with HeLa Kyoto [2] (cell cycle stage: G1/S) and in the series on HeLa Kyoto [2] (cell cycle stage: mitosis) were 56.2 °C and 57.7 °C, respectively. Besides, the “solubility in G1/S (log2)” value in the series with HeLa Kyoto [3] was -0.107. Moreover, the “solubility change mitosis (log2)” value in the series on HeLa Kyoto [4] is -0.224.

(Values after the supplement of paper PMC5998384.)
